Measured values from paper PMC2792576.

Target: human cyclic nucleotide-gated channel β1-subunit, wild type (human) (UniProt Q14028)
Experiment: HEK 293 plasma membrane recruitment assay

Chain of human cyclic nucleotide-gated channel β1-subunit, wild type (human) (Q14028 whole entry): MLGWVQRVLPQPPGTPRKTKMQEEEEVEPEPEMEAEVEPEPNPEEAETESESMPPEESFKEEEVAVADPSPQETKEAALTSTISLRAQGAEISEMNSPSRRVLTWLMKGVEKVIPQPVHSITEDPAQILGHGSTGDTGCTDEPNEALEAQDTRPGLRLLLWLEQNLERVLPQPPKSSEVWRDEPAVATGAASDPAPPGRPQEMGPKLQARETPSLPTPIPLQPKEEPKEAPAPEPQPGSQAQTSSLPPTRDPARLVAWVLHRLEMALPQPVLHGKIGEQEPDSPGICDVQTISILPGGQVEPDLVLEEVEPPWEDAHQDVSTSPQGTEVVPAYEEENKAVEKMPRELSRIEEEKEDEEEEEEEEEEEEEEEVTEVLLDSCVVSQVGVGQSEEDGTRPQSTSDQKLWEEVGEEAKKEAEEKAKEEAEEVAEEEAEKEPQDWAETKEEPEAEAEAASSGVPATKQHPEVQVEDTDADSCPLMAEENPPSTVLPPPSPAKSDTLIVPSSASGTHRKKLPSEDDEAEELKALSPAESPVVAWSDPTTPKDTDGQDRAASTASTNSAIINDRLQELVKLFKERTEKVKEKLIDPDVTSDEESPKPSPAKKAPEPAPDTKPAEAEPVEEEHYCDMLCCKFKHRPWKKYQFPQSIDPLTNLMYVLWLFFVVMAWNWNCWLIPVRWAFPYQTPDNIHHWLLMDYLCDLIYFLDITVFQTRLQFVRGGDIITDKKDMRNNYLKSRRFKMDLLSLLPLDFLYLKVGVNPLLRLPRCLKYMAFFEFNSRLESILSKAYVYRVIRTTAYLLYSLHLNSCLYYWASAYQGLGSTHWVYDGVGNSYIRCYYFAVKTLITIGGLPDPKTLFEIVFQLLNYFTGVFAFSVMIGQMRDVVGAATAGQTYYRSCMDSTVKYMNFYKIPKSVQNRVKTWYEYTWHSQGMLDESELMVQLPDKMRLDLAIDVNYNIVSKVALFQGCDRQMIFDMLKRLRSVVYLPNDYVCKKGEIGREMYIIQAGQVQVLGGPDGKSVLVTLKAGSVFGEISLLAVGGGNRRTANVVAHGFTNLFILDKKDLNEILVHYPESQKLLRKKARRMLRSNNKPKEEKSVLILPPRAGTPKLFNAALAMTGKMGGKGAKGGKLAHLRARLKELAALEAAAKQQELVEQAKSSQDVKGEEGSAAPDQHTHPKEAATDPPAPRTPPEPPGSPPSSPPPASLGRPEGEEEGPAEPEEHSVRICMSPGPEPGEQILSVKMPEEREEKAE

Substance: ankyrin-G fused to green fluorescent protein, O70511 1-2622
- cells with complete recruitment: 65 % of cells
